According to article PMC5730196:

Key:
[1] = molecular target: DREP1 CIDE domain (DFF-related protein 1), wild type (Drosophila melanogaster); assay: SEC; purified proteins alone or mixed, Superdex 200 HR 10/30 in 20 mM Tris-HCl pH 8.0, 150 mM NaCl; peak fractions on SDS-PAGE
[2] = molecular target: DREP3 CIDE domain (DFF-related protein 3), wild type (Drosophila melanogaster); assay: as above

Row | stoichiometry N [1] | stoichiometry N [2] | Substance
1 | 2 |  | DREP1 CIDE domain (DFF-related protein 1), wild type (domain or fragment)
2 |  | 2 | DREP3 CIDE domain (DFF-related protein 3), wild type (domain or fragment)
